Assay results taken from the supplement of paper PMC9170038.

System: MS2 coat protein
Test: apparent KD of MS2 coat protein; designed switch direction (-1 OFF switch, 1 ON switch): 1; higher = weaker reporter binding
Summary of the method: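 Each step of the titration lasted 0.8–1.5 h at the lowest concentration and 10–20 min at the highest. The protein, SNAP-549-labelled MS2 coat protein, went from 0.7 or 1.5 nM doubling to 3 µM over RNA switches transcribed on Illumina chips by stalled E. coli RNA polymerase. Normalised cluster fluorescence was curve-fitted, and the per-design median over clusters is given as apparent KD.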

[1] = input ligand: microRNA oligo, concentration not stated

Sequence	apparent KD of MS2 coat protein (Eterna round: R95, input ligand: FMN 200 uM) [nM]	apparent KD of MS2 coat protein (Eterna round: R95, input ligand: microRNA oligo, concentration not stated) [nM]	apparent KD of MS2 coat protein (Eterna round: R95, input ligand: none) [nM]	apparent KD of MS2 coat protein (input ligand: FMN 200 uM) [nM]	apparent KD of MS2 coat protein [1] [nM]	apparent KD of MS2 coat protein (input ligand: none) [nM]
UGUUAACAUGAGGAUCACCCAUGUCAAAUGAAUCGAGGAUAUGGGAAGUAAUAAGAGAAACUAGAAGGCGAAGUUG [Altered State 1-2 - Jieux - Same State 1] (puzzle: Same State 1)	276	353	192			
UGUUAGUAGUGAGGAUAUACAUACACCUUACAUGAGGAUCACCCAUGUUUUAAUAUUGAUAGUUAGUAGAAGGCACAUGAUUAU [JR_SSNG2_Sub043] (Eterna round: R96, puzzle: Same State NG 2)				22.1	35.8	45.7
UGUUAUUUGACAGGAUAUUGAUUGUAAAGUUUUUACAUGAGGAUCACCCAUGUUGUUCAUUCGAACAAGAAGGGUCAAGUUUUU [JR_SSNG2_Sub019] (Eterna round: R96, puzzle: Same State NG 2)				1070	48.2	172
UGUUAUUUGACAGGAUAUUGAUUGUUAAGUUUUUACAUGAGGAUCACCCAUGUUGUUCAUUCGUACAAGAAGGGUCAAGUUUUU [JR_SSNG2_Sub020] (Eterna round: R96, puzzle: Same State NG 2)					52.6	
UGUUGUAUUACAGGAUAUCUAAUAUUUUUAUUUAGAGAAGGGUAUUCACAUGAGGAUCACCCAUGUAUAUACGAGGAAGUUGUG [JMF's solution 8] (Eterna round: R96, puzzle: Same State NG 1)					24.6	
UGUUGUAUUACAGGAUAUCUAGUAUUUUUAUUUAGAGAAGGGUAUUCACAUGAGGAUCACCCAUGUAUAUACGAGGAAGUUGUG [JMF's solution 9] (Eterna round: R96, puzzle: Same State NG 1)					28	
UGUUGUAUUACAGGAUAUCUAGUGUUUUUAUUUAGAGAAGGGUAUUCACAUGAGGAUCACCCAUGUAUAUACGAGGAAGUUGUG [JMF's solution 34] (Eterna round: R96, puzzle: Same State NG 1)					43	
UGUUGUAUUACAGGAUAUCUAUUGUAUUUAUUUAGAGAAGGGUAUUCACAUGAGGAUCACCCAUGUAUAUACGAGGAAGUUGUG [JMF's solution 73] (Eterna round: R96, puzzle: Same State NG 1)					46.7	
UUAAAGAAGUAAGGAUAUACAUGAGGAUCACUCGUAGAAGGUACUAAACAUGAGGAUCACCCAUGUACCGGUCCGUAGACUGGA [Mat - Same State NG 1 - JL mod - D2] (Eterna round: R96, puzzle: Same State NG 1)				960	248	483
UUAACAUGAGGAUCACCCAUGUAUAGGGAGUUUGCAAUUUGACAGGAUAUUGAAGAUUUAUAUAGCAAGAAGGGUCGUUAGUCU [JR_SSNG3_Sub005] (Eterna round: R96, puzzle: Same State NG 3)				38	44.9	53.6
UUAAUGAUGUAAGGAUAUACAUGAGGAUUUCUCGUAGAAGGUACAAGACAUGAGGAUCACCCAUGUGUCGCUCAAUAGAGCGUA [Mat - Same State NG 1 - JL mod - D19] (Eterna round: R96, puzzle: Same State NG 1)				268	138	292
UUAAUUUACUGAGGAUAUCGUGUCGACUGAGUUGACAUGAGGAUCACCCAUGUGAGAAGUGGUAUCGAGAAGGCAGUAUUCAUA [JR_SSNG2_Sub023] (Eterna round: R96, puzzle: Same State NG 2)				16.1	28.9	42
